This note sets out measurements from patent publication US20090092614A1.

Test [1] deals with human IGF-1R(1-903)-Fc (human) (UniProt P08069). Briefly: blocking ELISA, competitor 320 nM IGF-1. On the technique in general: In an ELISA, binding on a coated surface is turned into a signal by an enzyme label.
The target is the same in test [2]. Briefly: competition ELISA: biotinylated hIGF-1R-Fc on streptavidin plate, antibody titrated in 320 nM human IGF-1 His (blocked ligand), anti-His-HRP detection.
The target is the same in test [3]. The experiment in a line: blocking ELISA, competitor 640 nM IGF-2.

Sequence of human IGF-1R(1-903)-Fc (human) (P08069 31-933): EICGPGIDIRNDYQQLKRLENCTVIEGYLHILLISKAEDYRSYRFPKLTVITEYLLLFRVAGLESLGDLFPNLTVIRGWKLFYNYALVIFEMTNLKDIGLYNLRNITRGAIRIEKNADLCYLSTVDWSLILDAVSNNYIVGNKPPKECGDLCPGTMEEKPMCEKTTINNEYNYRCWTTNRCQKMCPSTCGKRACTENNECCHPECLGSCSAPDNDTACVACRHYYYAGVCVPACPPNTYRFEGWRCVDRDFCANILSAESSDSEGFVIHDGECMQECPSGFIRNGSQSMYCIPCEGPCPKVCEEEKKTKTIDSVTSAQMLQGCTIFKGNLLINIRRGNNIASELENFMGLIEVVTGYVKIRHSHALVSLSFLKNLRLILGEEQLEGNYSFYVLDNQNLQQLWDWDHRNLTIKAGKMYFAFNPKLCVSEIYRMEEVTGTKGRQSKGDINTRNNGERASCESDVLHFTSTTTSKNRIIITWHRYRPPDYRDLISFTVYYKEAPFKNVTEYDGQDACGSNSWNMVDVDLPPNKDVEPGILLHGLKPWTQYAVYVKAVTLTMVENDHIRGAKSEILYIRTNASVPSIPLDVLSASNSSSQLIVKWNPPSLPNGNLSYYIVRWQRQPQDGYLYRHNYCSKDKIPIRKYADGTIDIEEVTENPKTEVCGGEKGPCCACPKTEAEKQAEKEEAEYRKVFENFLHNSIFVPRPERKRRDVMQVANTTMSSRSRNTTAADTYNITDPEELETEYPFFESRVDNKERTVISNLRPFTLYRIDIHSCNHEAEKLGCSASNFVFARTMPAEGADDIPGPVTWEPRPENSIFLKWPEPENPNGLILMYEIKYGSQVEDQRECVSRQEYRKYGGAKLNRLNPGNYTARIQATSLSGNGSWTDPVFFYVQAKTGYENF

For αIR3 (antibody), the % IGF-1 inhibition upon antibody saturation in test [1] came to 23%. The same substance registered an IC50 (read off the curve) in test [2] of 4 nM. The % IGF-2 inhibition upon antibody saturation in test [3] is 60%.
